Laboratory results as given in paper PMC8519905, “Reproducibility and accuracy of microscale thermophoresis in the NanoTemper Monolith: a multi laboratory benchmark study” (European Biophysics Journal, 2021).
Where “and” joins values, the source holds several entries; their conditions need not be identical. Equal values may be shown once. One block for each molecule: values may come before it.

Experiments:
[1] = biological target: T1, unlabeled lysozyme (Gallus gallus, UniProt P00698); assay: label-free microscale thermophoresis (NT.LabelFree); assay type: binding; conditions: unlabelled protein; buffer not printed in main text for this test
T1 construct: gene LYZ; native hen egg white lysozyme (mature chain, signal peptide removed), unlabelled; source printed for the stock used for labelling

[2] = biological target: T2, Lysozyme isolated from hen egg white, labeled with RED-NHS 2nd generation dye (Gallus gallus (hen egg white), UniProt P00698, RED-NHS 2nd generation dye, amine reactive; degree of labeling ~0.70); assay: MST; TRIC analysis of the MST/TRIC time trace; RED-NHS labeled lysozyme as target, nanobody as titrated ligand; PBS+ (10 mM phosphate pH 7.4, 2.7 mM KCl, 137 mM NaCl, 0.005% Tween-20); premium coated capillaries; triplicates on 40 Monolith NT.115/NT.Pico instruments; means over instruments; analysed centrally with MOAA and PALMIST (hot region 0.5-1.5 s) and individually by users; fitted without correction for the …; conditions: both partners purified
T2 construct: lysozyme isolated from hen egg white (ROCHE Cat.No. 10837059001); also called labeled lysozyme; red labeled lysozyme; source: bought: ROCHE Cat.No. 10837059001 (isolated from hen egg white); labeled with the Monolith NT Protein Labeling Kit RED-NHS 2nd Generation

[3] = biological target: T2, Lysozyme isolated from hen egg white, …; assay: other fluorescence titration; analysis of the absolute (initial) fluorescence of the same Monolith datasets; RED-NHS labeled lysozyme as target, nanobody as titrated ligand; PBS+; triplicates on 40 instruments; means over instruments; analysed centrally with MOAA and PALMIST and by 8 of 40 users; conditions: both partners purified
[4] = biological target: T2, Lysozyme isolated from hen egg white, …; assay: MST; TRIC analysis of the MST/TRIC time trace; RED-NHS labeled lysozyme as target, nanobody as titrated ligand; PBS+ (10 mM phosphate pH 7.4, 2.7 mM KCl, 137 mM NaCl, 0.005% Tween-20); premium coated capillaries; triplicates on 40 Monolith NT.115/NT.Pico instruments; means over instruments; analysed centrally with MOAA and PALMIST (hot region 0.5-1.5 s) and individually by users; fitted without correction for the …; conditions: both partners purified; remark: listed apart in the source

T2 sequence (P00698 19-147): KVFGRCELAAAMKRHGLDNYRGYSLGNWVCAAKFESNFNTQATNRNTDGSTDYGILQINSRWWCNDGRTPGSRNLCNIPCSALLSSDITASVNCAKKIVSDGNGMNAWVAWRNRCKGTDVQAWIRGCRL
T1 sequence (P00698 19-147): as above

Kd [1]: ~4000 nM
Molecule: CC(=O)N[C@H]1[C@H](O[C@H]2[C@H](O)[C@@H](NC(C)=O)C(O)O[C@@H]2CO)O[C@H](CO)[C@@H](O[C@@H]2O[C@H](CO)[C@@H](O)[C@H](O)[C@H]2NC(C)=O)[C@@H]1O (stereo partly shown) [NAG3]

Kd [2]: 1170 nM
Kd [3]: 256 nM and 259 nM and 272 nM
Kd [4]: 111 nM and 119 nM and 76 nM
B1: anti-lysozyme nanobody: Cab-Lys3 with T101 of the CDR3 loop mutated to serine (VHH)
VHH: DVQLQASGGGSVQAGGSLRLSCAASGYTIGPYCMGWFRQAPGKEREGVAAINMGGGITYYADSVKGRFTISQDNAKNTVYLLMNSLEPEDTAIYYCAADSSIYASYYECGHGLSTGGYGYDSWGQGTQVTVSS
notes: parent chain is the VHH Cab-Lys3 (De Genst et al. 2002), with T101 in the CDR3 loop changed to serine; 14.2 kDa; also called NB; VHH; source: T7-Express E. coli (pET-22B), purified (Profinity IMAC, Superdex-75)
